Key:
human C4b = human C4b (UniProt P0C0L5)
soluble human C3b = soluble human C3b (UniProt P01024)
soluble human C3b, sequence (P01024 whole entry, looked up, tested part not stated): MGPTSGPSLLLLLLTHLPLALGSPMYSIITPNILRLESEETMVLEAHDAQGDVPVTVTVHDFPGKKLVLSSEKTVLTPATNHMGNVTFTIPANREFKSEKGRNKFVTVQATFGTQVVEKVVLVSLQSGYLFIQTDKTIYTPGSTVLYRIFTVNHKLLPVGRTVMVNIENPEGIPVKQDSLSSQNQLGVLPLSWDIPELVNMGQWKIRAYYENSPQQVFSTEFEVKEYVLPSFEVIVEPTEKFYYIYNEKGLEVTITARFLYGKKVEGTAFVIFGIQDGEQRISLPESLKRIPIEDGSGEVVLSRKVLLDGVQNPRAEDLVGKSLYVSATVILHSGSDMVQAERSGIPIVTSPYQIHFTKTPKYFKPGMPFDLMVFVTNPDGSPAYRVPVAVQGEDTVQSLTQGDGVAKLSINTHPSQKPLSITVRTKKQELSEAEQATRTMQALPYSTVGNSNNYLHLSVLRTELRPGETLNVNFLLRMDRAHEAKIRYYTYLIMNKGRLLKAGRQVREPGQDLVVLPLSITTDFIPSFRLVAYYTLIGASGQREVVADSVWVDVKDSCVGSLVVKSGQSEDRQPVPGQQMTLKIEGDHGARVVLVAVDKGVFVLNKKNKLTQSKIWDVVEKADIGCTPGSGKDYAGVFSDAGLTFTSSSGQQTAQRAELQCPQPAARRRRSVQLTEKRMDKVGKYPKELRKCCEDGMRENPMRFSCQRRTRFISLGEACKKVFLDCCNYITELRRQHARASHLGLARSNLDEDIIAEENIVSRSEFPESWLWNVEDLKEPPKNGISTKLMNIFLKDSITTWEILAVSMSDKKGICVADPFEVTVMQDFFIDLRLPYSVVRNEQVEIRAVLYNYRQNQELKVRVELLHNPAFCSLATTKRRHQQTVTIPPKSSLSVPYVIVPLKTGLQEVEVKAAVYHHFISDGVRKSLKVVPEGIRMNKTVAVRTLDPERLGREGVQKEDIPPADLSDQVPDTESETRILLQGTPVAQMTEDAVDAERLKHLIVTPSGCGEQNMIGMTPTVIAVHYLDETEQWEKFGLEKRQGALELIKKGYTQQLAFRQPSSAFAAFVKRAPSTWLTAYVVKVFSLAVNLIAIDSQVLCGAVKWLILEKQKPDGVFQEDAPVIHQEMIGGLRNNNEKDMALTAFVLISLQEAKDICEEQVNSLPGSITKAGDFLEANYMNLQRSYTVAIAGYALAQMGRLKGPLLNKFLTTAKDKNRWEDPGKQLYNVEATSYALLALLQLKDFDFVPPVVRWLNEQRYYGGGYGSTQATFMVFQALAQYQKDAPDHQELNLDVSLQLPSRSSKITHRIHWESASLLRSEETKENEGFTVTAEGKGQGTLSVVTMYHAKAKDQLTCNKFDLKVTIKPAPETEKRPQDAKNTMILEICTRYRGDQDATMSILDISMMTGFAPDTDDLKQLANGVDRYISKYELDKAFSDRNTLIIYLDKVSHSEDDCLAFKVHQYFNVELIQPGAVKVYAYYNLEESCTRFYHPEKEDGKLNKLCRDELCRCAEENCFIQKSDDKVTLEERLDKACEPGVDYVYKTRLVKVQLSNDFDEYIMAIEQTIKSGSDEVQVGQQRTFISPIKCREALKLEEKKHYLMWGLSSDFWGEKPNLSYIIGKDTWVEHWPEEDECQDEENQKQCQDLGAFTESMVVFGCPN

human C4b, sequence (P0C0L5 whole entry, looked up): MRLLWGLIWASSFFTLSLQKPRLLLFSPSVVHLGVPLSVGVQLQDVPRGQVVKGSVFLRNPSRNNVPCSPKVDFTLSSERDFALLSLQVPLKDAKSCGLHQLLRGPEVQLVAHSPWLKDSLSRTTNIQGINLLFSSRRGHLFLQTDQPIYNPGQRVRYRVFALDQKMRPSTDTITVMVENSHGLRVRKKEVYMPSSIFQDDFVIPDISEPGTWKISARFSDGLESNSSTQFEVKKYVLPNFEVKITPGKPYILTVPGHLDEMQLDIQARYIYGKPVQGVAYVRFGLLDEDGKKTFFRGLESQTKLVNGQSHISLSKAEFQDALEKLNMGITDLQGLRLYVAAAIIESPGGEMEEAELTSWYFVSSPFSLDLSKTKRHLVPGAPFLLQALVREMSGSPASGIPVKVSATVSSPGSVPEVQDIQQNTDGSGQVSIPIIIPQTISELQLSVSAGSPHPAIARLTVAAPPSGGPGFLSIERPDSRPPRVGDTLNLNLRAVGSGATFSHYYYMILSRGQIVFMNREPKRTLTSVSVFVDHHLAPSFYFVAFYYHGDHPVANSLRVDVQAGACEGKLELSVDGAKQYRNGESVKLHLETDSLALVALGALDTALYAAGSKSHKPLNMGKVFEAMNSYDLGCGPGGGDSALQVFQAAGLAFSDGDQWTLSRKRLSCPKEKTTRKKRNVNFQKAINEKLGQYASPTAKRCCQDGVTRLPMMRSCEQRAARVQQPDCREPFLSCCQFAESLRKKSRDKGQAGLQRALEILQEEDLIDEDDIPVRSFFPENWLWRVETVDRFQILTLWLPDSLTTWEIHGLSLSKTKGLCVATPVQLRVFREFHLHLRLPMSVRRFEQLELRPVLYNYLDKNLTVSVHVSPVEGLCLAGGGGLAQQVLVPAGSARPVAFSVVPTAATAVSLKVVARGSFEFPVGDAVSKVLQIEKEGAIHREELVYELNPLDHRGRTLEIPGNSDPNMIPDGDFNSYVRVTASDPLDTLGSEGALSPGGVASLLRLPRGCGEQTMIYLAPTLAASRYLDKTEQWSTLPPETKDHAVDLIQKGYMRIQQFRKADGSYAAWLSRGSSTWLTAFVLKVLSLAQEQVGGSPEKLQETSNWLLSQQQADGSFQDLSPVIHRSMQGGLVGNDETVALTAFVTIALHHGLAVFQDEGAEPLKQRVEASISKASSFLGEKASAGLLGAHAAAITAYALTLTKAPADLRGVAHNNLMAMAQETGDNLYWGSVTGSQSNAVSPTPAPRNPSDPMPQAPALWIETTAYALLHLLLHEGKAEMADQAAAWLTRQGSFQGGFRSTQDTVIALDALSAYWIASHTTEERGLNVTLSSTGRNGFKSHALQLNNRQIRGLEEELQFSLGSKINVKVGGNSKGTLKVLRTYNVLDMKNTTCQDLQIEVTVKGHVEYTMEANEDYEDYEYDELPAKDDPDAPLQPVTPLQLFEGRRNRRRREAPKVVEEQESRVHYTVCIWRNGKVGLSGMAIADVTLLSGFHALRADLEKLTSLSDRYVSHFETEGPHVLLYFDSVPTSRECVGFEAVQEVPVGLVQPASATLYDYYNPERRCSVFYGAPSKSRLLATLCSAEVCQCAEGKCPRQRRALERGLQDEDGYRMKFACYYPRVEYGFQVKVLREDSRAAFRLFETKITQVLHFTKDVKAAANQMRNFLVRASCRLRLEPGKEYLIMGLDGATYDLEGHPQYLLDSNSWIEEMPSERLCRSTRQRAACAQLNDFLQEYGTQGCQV
Const. No. 70: HSA-GGSSGGSSGG-Rat CFI, sequence (chain): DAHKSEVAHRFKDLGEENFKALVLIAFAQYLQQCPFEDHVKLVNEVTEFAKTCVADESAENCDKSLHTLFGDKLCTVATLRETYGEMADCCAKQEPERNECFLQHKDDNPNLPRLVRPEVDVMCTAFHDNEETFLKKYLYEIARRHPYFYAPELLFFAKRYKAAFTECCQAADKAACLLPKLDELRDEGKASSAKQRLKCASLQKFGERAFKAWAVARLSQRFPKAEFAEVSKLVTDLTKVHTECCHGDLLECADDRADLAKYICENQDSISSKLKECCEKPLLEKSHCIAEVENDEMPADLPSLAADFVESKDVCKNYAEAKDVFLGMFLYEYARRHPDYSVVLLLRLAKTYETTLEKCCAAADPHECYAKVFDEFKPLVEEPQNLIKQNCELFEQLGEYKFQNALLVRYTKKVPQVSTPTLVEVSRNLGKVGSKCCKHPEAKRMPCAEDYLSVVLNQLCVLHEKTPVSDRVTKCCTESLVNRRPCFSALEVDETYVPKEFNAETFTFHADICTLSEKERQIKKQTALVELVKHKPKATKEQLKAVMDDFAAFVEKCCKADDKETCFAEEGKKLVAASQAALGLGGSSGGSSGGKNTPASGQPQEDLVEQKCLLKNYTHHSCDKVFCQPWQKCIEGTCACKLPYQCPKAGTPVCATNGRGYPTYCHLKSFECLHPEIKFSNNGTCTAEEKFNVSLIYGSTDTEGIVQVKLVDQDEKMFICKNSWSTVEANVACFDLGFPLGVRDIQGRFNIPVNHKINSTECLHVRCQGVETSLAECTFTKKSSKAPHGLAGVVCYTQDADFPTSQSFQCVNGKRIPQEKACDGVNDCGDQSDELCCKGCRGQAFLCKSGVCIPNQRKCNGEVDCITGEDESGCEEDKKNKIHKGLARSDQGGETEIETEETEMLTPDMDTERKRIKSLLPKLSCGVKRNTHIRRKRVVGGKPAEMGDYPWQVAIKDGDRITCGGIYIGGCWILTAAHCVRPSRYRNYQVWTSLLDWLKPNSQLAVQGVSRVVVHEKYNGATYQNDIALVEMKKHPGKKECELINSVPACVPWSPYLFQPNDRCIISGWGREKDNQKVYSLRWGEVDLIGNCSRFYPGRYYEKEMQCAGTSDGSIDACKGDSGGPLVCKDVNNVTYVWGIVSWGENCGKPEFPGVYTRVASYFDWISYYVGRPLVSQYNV

Row | Substance | C4c ref fold (human C4b) | iC3b ref fold (soluble human C3b)
1 | Const. No. 1: HSA-GGSSGG-hCFI; F559W | 1.08 fold | 1.39 fold
2 | Const. No. 2: HSA-GGSSGG-hCFI; F559H | 0.58 fold | 1.73 fold
3 | Const. No. 3: HSA-GGSSGG-hCFI; L307F | 3.48 fold | 1.01 fold
4 | Const. No. 4: HSA-GGSSGG-hCFI; L307H | 3.55 fold | 0.89 fold
5 | Const. No. 5: HSA-GGSSGG-hCFI; L307W | 3.89 fold | 0.79 fold
6 | Const. No. 6: HSA-GGSSGG-hCFI; L307Y | 2.98 fold | 0.63 fold
7 | Const. No. 7: HSA-GGSSGG-hCFI; P433A | 0.81 fold | 0.8 fold
8 | Const. No. 8: HSA-GGSSGG-hCFI; P433G | 0.39 fold | 0.14 fold
9 | Const. No. 9: HSA-GGSSGG-hCFI; P433F | 0.05 fold | 0.07 fold
10 | Const. No. 10: HSA-GGSSGG-hCFI; Δ(Y496) | 0.02 fold | 0.03 fold
11 | Const. No. 11: HSA-GGSSGG-hCFI; Δ(D497) | -0.02 fold | -0.01 fold
12 | Const. No. 12: HSA-GGSSGG-hCFI; Δ(Y496; D497) | 0.9 fold | 0.18 fold
13 | Const. No. 13: HSA-GGSSGG-hCFI; S499G | 0.72 fold | 0.34 fold
14 | Const. No. 14: HSA-GGSSGG-hCFI; S499A | 0.45 fold | 1.36 fold
15 | Const. No. 15: HSA-GGSSGG-hCFI; S499K | 1.98 fold | 0.67 fold
16 | Const. No. 16: HSA-GGSSGG-hCFI; S499V | 1.24 fold | 0.18 fold
17 | Const. No. 17: HSA-GGSSGG-hCFI; Y496L | 1.54 fold | 0.44 fold
18 | Const. No. 18: HSA-GGSSGG-hCFI; S499G; I500K | 0.08 fold | 0.16 fold
19 | Const. No. 19: HSA-GGSSGG-hCFI; S499A; I500K | -0.05 fold | 0.02 fold
20 | Const. No. 20: HSA-GGSSGG-hCFI; T495F; Y496L; S499G; I500K | 0.05 fold | 0 fold
21 | Const. No. 21: HSA-GGSSGG-hCFI; K423R | 1.44 fold | 0.55 fold
22 | Const. No. 22: HSA-GGSSGG-hCFI; R62A | 1.07 fold | 0.23 fold
23 | Const. No. 23: HSA-GGSSGG-hCFI; R62E | 0.1 fold | 0.04 fold

Row | Substance | C4c ref fold (human C4b) | iC3b ref fold (soluble human C3b)
24 | Const. No. 24: HSA-GGSSGG-hCFI; R62L | 0.59 fold | 0.19 fold
25 | Const. No. 25: HSA-GGSSGG-hCFI; R62H | 0.74 fold | 0.29 fold
26 | Const. No. 26: HSA-GGSSGG-hCFI; E401K | 1.92 fold | 2.37 fold
27 | Const. No. 27: HSA-GGSSGG-hCFI; E401R | 2.93 fold | 2.12 fold
28 | Const. No. 28: HSA-GGSSGG-hCFI; E401A | 0.86 fold | 1.87 fold
29 | Const. No. 29: HSA-GGSSGG-hCFI; E401F | 0.5 fold | 1.64 fold
30 | Const. No. 30: HSA-GGSSGG-hCFI; N402G | 0.73 fold | 1.44 fold
31 | Const. No. 31: HSA-GGSSGG-hCFI; N402K | 1.14 fold | 1.53 fold
32 | Const. No. 32: HSA-GGSSGG-hCFI; N402R | 0.98 fold | 1.47 fold
33 | Const. No. 33: HSA-GGSSGG-hCFI; H554F | 0.55 fold | 1 fold
34 | Const. No. 34: HSA-GGSSGG-hCFI; H554K | 2.62 fold | 2.11 fold
35 | Const. No. 35: HSA-GGSSGG-hCFI; R371E | 2.02 fold | 0.04 fold
36 | Const. No. 36: HSA-GGSSGG-hCFI; A342R | 2.08 fold | 1.73 fold
37 | Const. No. 37: HSA-GGSSGG-hCFI; K51R; N52A; A55P; T59M; R61G; F64Y | 3.59 fold | 1.12 fold
38 | Const. No. 38: HSA-GGSSGG-hCFI; N52A | 2.93 fold | 0.72 fold
39 | Const. No. 39: HSA-GGSSGG-hCFI; A55P | 2.83 fold | 1.1 fold
40 | Const. No. 40: HSA-GGSSGG-hCFI; T59E | 2.17 fold | 0.68 fold
41 | Const. No. 41: HSA-GGSSGG-hCFI; L73F | 2.36 fold | 0.9 fold
42 | Const. No. 42: HSA-GGSSGG-hCFI; L73D | 2.33 fold | 0.08 fold
43 | Const. No. 43: HSA-GGSSGG-hCFI; Δ(275-CAGFASVAQE-284)(SEQ ID NO: 31) > CEEDRQQNIPKGLARSAQGEAEIETE (SEQ ID NO: 32) | 1.54 fold | 0.89 fold
44 | Const. No. 44: HSA-GGSSGG-hCFI; Δ(275-CAGFASVAQE-284)(SEQ ID NO: 31) > CEEDRQQNIPKGLARSAQGEAEIETE (SEQ ID NO: 32) + GGSSGG (SEQ ID NO: 6) + CR1(ccp15-17) | 3.47 fold | 0.03 fold
45 | Const. No. 45: HSA-GGSSGG-hCFI; R484A | 1.3 fold | 0.7 fold
46 | Const. No. 46: HSA-GGSSGG-hCFI; R484K | 0.76 fold | 1.21 fold

Row | Substance | C4c ref fold (human C4b) | iC3b ref fold (soluble human C3b)
47 | Const. No. 47: HSA-GGSSGG-hCFI; R484E | 0.93 fold | 0.35 fold
48 | Const. No. 48: HSA-GGSSGG-hCFI; Δ(V565) > VG | 0.67 fold | 0 fold
49 | Const. No. 49: HSA-GGSSGG-hCFI; Δ(V565) > VY | 1.47 fold | 0.15 fold
50 | Const. No. 50: HSA-GGSSGG-hCFI; E416K | 1.23 fold | 1.89 fold
51 | Const. No. 51: HSA-GGSSGG-hCFI; E416R | 1.17 fold | 1.87 fold
52 | Const. No. 52: HSA-GGSSGG-hCFI; D395A | 0.78 fold | 1.55 fold
53 | Const. No. 53: HSA-GGSSGG-hCFI; D395G | 0.8 fold | 1.52 fold
54 | Const. No. 54: HSA-GGSSGG-hCFI; D395K | 1.61 fold | 2.06 fold
55 | Const. No. 55: HSA-GGSSGG-hCFI; D395R | 1.38 fold | 1.85 fold
56 | Const. No. 56: HSA-GGSSGG-hCFI; D395A; D425A | 0.65 fold | 1.77 fold
57 | Const. No. 57: HSA-GGSSGG-hCFI; D395A; E416A | 0.06 fold | 0.76 fold
58 | Const. No. 58: HSA-GGSSGG-hCFI; D395A; E416A; D425A | 0.06 fold | 0.77 fold
59 | Const. No. 59: HSA-GGSSGG-hCFI; N402D | 1.66 fold | 0.74 fold
60 | Const. No. 60: HSA-GGSSGG-hCFI; K368D | 1.39 fold | 0.03 fold
61 | Const. No. 64: HSA-GGSSGG-hCFI-GGSSGG-hCR1; CCP8; CCP9; CCP10 | 4.11 fold | 0.06 fold
62 | Const. No. 67: HSA-GGSSGG-hCFI-GGSSGG-hCR1; CCP1; CCP2; CCP3; CCP4 | 3.2 fold | -0.01 fold
63 | Const. No. 68: HSA-GGSSGG-hCFI-GGSSGG-hCR1; CCP1; CCP2; CCP3-GGSSGG-hCR1; CCP15; CCP16; CCP17 | 3.75 fold | 0.06 fold
64 | Const. No. 70: HSA-GGSSGGSSGG-Rat CFI | 4.12 fold | 0.94 fold
65 | Const. No. 71: HSA-GGSSGGSSGG-Gorilla CFI | 0.09 fold | 0.07 fold
66 | Const. No. 72: HSA-GGSSGGSSGG-Cyno CFI | 0.34 fold | 3.17 fold
67 | Const. No. 73: HSA-GGSSGGSSGG-Chimp CFI | -0.03 fold | 0.08 fold
68 | Const. No. 74: HSA-GGSSGGSSGG-Bovine CFI | 2.19 fold | 1.67 fold
69 | Const. No. 75: HSA-GGSSGGSSGG-Alligator CFI | 0.12 fold | -0.03 fold

— patent publication US20250011379
